test: soluble on expression in E. coli; label from the status in PepcDB or PDB records

Q: With “MKANRVNIKQAITEGETSLGIEFGSTRIKAVLIDSSFETIASGSYEWENLLEDGFWTYNLVDIITGLRTAYSEMKNEVERNYGITIRKIGSIGISAMMHGYMAFDKTGELLVPFRTWRNSTTGAAAKELTDQFQFNIPERWSIAHLYQAILNEEKHLPRIDYITTLAGYIHWLLTGNKAIGIGDASGMFPIDESTQNYNESMVKQFDELISNKGYPWKLKDILPKVYISGEQAGELTEIGAKILDQSKNLQPGIPICPPEGDAGTGMVATNSVRKRTGNISVGTSVFAMIVLEKELSKVYPEIDLVTTPNGSPVGMVHANNCSSDINAWLGLFREFFEAMGQKIETNKLFEVMLNKALEADSDGGGLLSYGYFSGENITGLEKGRPLFVRSPESRFNLANFMRTHLFTAFAALKIGMDILTKEEKIEIDSILAHGGLFKTPLVGQKIVAAAMNTPVSVMETAGEGGAWGMAILASYMMNKGQEESLEDFLDKKVFEEDAGQEIYPDQLDVEGFEAFIERYKKGLMIEQAAVDHLILEHHHHHH” as the sequence, how does the “soluble on expression in E. coli” value read?
A: soluble

Q: Which “soluble on expression in E. coli” value does the source give for “MRNPKQTRGKQTKSKIINAAFELFSEKGYTGTSSNEIASRAEVAIGSFYSYFKDKKQLFIEVLKDYYDNISKISFSNINGTISNLDDFLYESIKIALKAHEYHPEFHREVNIMELADDDIKKLIVGYEKVKFDSFKKLVEPYKNEFKNLNFNEALFLIYTTIENTVHVITFSTDTNLNKETLIKELISMIKSYINA” here?
A: not soluble

Q: For “GSHMASTISVKDENGTVKVPKDAKRIVVLEYSFADALAALDVKPVGIADDGKKKRIIKPVREKIGDYTSVGTRKQPNLEEISKLKPDLIIADSSRHKGINKELNKIAPTLSLKSFDGDYKQNINSFKTIAKALNKEKEGEKRLAEHDKLINKYKDEIKFDRNQKVLPAVVAKAGLLAHPNYSYVGQFLNELGFKNALSDDVTKGLSKYLKGPYLQLDTEHLADLNPERMIIMTDHAKKDSAEFKKLQEDATWKKLNAVKNNRVDIVDRDVWARSRGLISSEEMAKELVELSKKEQK”, which “soluble on expression in E. coli” value is on record?
A: soluble

Q: Which “soluble on expression in E. coli” value does the source give for “MAIQLSKGQRIDLTKTNPGLTKAVIGLGWDTNKYSGGHDFDLDASAFLVDAHDNCVNDLDFVFYNNLEHPSGGVIHTGDNRTGEGDGDDEQIIVDFSKIPAHIEKIGITVTIHDAEARSQNFGQVSNAFVRVVDEETQNELLRFDLGEDFSIETAVVVCELYRHGGEWKFNAIGSGFSGGLAALCRNYGLQV” here?
A: not soluble

Q: For “MTPFTVDILIPIWNRPVETRNCLVTLMETTPSARLILIDNGSDRETERLLEEFSEILGERALFLKTSANQGFVRAVNRSLAQVEAPYAVVMQNTTLVTRGWLEPMVELADSRPDAGIIVPRLELEDGQGRRPKAAPPAGPVTEVSHGSFAASMVRRELVERQGGFDEELDGGPWCLRDYSRRAFRNGFLTLALDGAVVTYAEEVPLGSVARREETVRRSAETCRARWGREDAFCIYFPKDAEPEAVHGKLDVILRGARMGQCFTLILHPGLHKSLMETGHAPLHSNIALAPLPRFFATGEIRKIIGKLASVRGDTVTVAGVDGLSIPGVEGARSFSWLADEIRRRHESLYRPESP”, which “soluble on expression in E. coli” value is on record?
A: soluble

Q: Which “soluble on expression in E. coli” value does the source give for “MKAIIVKPPNAGVQVKDVDEKKLDSYGKIKIRTIYNGICGADREIVNGKLTLSTLPKGKDFLVLGHEAIGVVEESYHGFSQGDLVMPVNRRGCGICRNCLVGRPDFCETGEFGEAGIHKMDGFMREWWYDDPKYLVKIPKSIEDIGILAQPLADIEKSIEEILEVQKRVPVWTCDDGTLNCRKVLVVGTGPIGVLFTLLFRTYGLEVWMANRREPTEVEQTVIEETKTNYYNSSNGYDKLKDSVGKFDVIIDATGADVNILGNVIPLLGRNGVLGLFGFSTSGSVPLDYKTLQEIVHTNKTIIGLVNGQKPHFQQAVVHLASWKTLYPKAAKMLITKTVSINDEKELLKVLREKEHGEIKIRILWE” here?
A: soluble

Q: For “IEDEVIYSKKRYKLKREIDKLFLDEEYFQIEPQLFEEYDEFTTINNKIPEESMVKVVNGKVMVLRADITTSIIKSLVPRWEDGLKLKLFYNSSIYKNKNTVGIKEIRQIGCEYLGEASVEADREVVKLALKILEKYNNNFILEVGSSKYIHGLLEELNLNKNCENQIKNLLYTKNTHELKVYIEELKIKHEVKELLSNILSLQGNLYNVIEKSNKFYCNNKMKQALEELKQVNNLIEECNFLDKARFDLSMITMLDYYEGIMFRGYYPNSYKEILSGGRYDSLTKEYGKEIPAIGFTLSVDELMKYVYK”, which “soluble on expression in E. coli” value is on record?
A: not soluble

Q: Which “soluble on expression in E. coli” value does the source give for “MGSDKIHHHHHHMNIQQMKYVAAIANNGSFREAAKKLFITQPSLSNSIRELEEELGISLFLRTNKGAFLTEEGMVFLEQAEKVLVQMELLENRYRETVTSERFSISSQHYDFLGEVIAKVLKKYGDQYKDFRVFETTTLKVIEDVKGFHSELGIIYLNEQNSVSIERYLEQANLAYEVISTFNTHIFLGNHHPLAKQKEIHLEELVPYPQVRFNQEGSNFSYFSEDLVEIPEQESVIHTTDRGTLMNLLVETNAYASGSGVVTGFTKKEIRLVPLAPALENRICLLFPKNREISPIGRYFIKELKALFKKEVDTKTFSTKE” here?
A: not soluble

Q: With “MGSDKIHHHHHHMTEILLKELTKSDIDWMITTGNQQELAAGTILIQERGSTEFFHILLDGTFSVTLSQPENNPLTRAFAAIEGEEISGREIGRLSRGEIVGESPLIGTRPPATTITSVEKSLVISIPIRELAAKLQQDVGFAARFYRAIAIIISNRIENTIDQLGRRNLAQSQPLRDVLFILGELHDSDIDWMMASGTPQKIPANTILIHEQGTVDALYILLDGKMSLSISLDERNPLVRAFAAIEGNEISGREIAKLSKGEIIGETPFIDGSLPPTTVKAIEHSVVLSIPRQQLAAKLQQDIGFASRFYRVIASLLDQRLQPMVSQLGYGRRVYSRGESLHEGLEYDDELDINTLDRMAIAGKRFDWMLERLKVS” as the sequence, how does the “soluble on expression in E. coli” value read?
A: not soluble

Q: With “MAEEVRAFSLPSRRVVLQDEKMEQDEEHSSPTRSTSSNSDEPTETIESGDQFDVNEPIPTIETLEPVIISAASVQQLPAISLSGNNAQRTLWIGDVPTDWTEETLSQVFTECGHAPYKVKRVYVKDELKGYCFIEFITFDEARQTLYDLNGNRIPGFKDIRFNLCFANDSYNPNSEFNLHVSSVPDDMADAELYRIFDKYQSCRGAKMFRFVDGSSKGSGFVRFGNQTDQQMALVEMHRTKVGGCRIILKLAGSRGERLDRGESRQFKSQRNDRRRDEKSGQYRNGTAVPQQTQVYDAYGNPVVVPVDKNIYGTDHPWGPFPDDPDLDSIIGLDLLTTKYRPQIANKRLMIDTDQFMLDLESSRWSSIAFNTNIKKEDFEKRITDNPWTAVP” as the sequence, how does the “soluble on expression in E. coli” value read?
A: not soluble

Q: For “MGSDKIHHHHHHMTEPTRHQEHETETQEADLPNVCVVTHPLAAAGENATRSLLDILSAITSVALVTADLPADSEIRDRHELVELTQKGAGDSVVIAAFRFLLNQLRMCRVIAGRDEDVVLFFGATSYLLPIVVTRLLGKTVLVEPRGDVPLTLRLNWEQQLPDQVAAVLAGAVRALERAGFAVAHGVITYTPEMARQLDLHPESPSVYPTGARYVRTNEFCVQRPYADRDRVVGFLGRLDEEKGVRELAAVATQLPDDITFRFVGDGDLREWLEEDLAADIEAGHVELTGWVDHDKVPHALNDLELLILPSQPTEGLPTTILEALACGTPVYASPVSGVPDVVRDEETGFTIDSRESTALAAGIERILDRNDLAAISENGRTLIEREYSFDAACERYRGILRSVAGYSS”, which “soluble on expression in E. coli” value is on record?
A: not soluble

Q: With “MSLNYTELEENIKKNNIENVYIMCGFNEKLMKESINKILKKSISQDFESLNYSVFDGNEVEFEDILNACETVPFMSEKRMVVVYRAGFLNDNSSGSNKNSDKLIKDIEKYVPNVPKHCILVMYYVFDNTREKPSYRVKKFDKKVCVVEFSKLRGMQFQKKVKDVFAEKGKQIGKTELNYFCSRVENNMDIVYNEIEKLCCYTLEKEITKESIDNLLQPNETDDIFNLVDYISQSKPEMAITVLNEIMYKGVKANSILYMVERQFKLMLSIKIGIENKQSKEALVKELKLNPYVCDKMINECKRFTMKKILKSLDICLRTEKELKSVSGDPKFKMEVLIINLAIEGHHHHHH” as the sequence, how does the “soluble on expression in E. coli” value read?
A: soluble

Q: For “MKRISTLFLLATLGLAAGTAQAAQPDAGLTGCAAKRSAIENQLKIARDHGNSDQVGGLEEALRGVDNCTDASLRKEREQKVLDARHEVAQREKDLKKAEKKGDAEKINKRKDKLAESRKELQEAVDALDR”, which “soluble on expression in E. coli” value is on record?
A: not soluble

Q: Which “soluble on expression in E. coli” value does the source give for “MSSDHVFKYVIIGDRGVGKSNLLLRFIGKPFDSIHPSTLGIEFGFRNLEIDRKKVKLHVWDTCGQERFRSLVGSYYRHAIGALLVYDITSRESFYHLEHWLTDLQRLGDPDIVIVLIGNKSDLEADREVRKEEGEAFAREFGLIFMEISAKTNEYVEEAFVNSAHEIYRKLNFGIIKEICVKKKKKKMNIIIRSISGKEKACC” here?
A: not soluble

Q: For “MGSDKIHHHHHHMAIGLSTYAFFWRASSRVPNPLGLAAMLEQTAESGAGVFQICDYAAVEALSPAELEKLRQRAVDLGIQLELGTRGLATDHLTRYLTMARALDVRFIRTMFNSATHKPTQDEALALLRCVLPEFEQYNIQLGLETYEQVKTRDVLAVVDAIDSPALGICLDPGNCVAALEYPHEVIELTASRVVNLHIKDFAFARQEGWVGFTYSGCLLGTGLLDYDALHQTIRPNERNINQIVEHWLPWQASAEETCRLEDAWTRHSLNYLYTRNPYANRSSHIL”, which “soluble on expression in E. coli” value is on record?
A: not soluble

Q: Which “soluble on expression in E. coli” value does the source give for “MNYSRIAEAIEYIRAHYKEQPGLDEVAEKVHLSPFHFQRIFTEWAGLEHHHHHH” here?
A: not soluble

Q: Which “soluble on expression in E. coli” value does the source give for “GDFIVVQSTTSTQNSGLLDHILPAFEAETGIEVRVVAVGTGQAIRNAANGDGDVLLVHAKAAEEKFVAEGWGVERFDVMYNDFVLVGPASDPAGVRGGSDIVAALSAIAGAEAPFASRGDDSGTHKAELRHWASAGIDVSAASGGWYRETGSGMGATLNLAAGMGAYALSDRATWIAFGNKGDLVVAVEGDARLFNQYGVILVNPAKHPGVKAEAGQRFIDWLTGDEGQAAIAGYTL” here?
A: not soluble

Q: For “GMGGAALPDNGWPADRIDTESAHSARIYDYIIGGKDYYPADKEAGDAMSREWPALPVHMRANRDWMNRAVAHLAKEAGIRQFLDIGTGIPTSPNLHEIAQSVAPESRVVYVDNDPIVLTLSQGLLASTPEGRTAYVEADMLDPASILDAPELRDTLDLTRPVALTVIAIVHFVLDEDDAVGIVRRLLEPLPSGSYLAMSIGTAEFAPQEVGRVAREYAARNMPMRLRTHAEAEEFFEGLELVEPGIVQVHKWHPDAATADGIRDEDIAMYGAVARKP”, which “soluble on expression in E. coli” value is on record?
A: soluble

Q: With “TQDWNWNIGYNISYNKNKITKMTFNDDPNYAGVIHGGIDGGTGYNALIHRVGEAFNSFYVFEQIYGPDGKPIEGAYVDQNGDNQINDADLICFKKAAPDVFMGLTSQLSYKNWDFSFALRGSFGNYVYNNVQSNREAYEGANMYDQTGFLKNRLTSARSTDFKNAQYRSSYYVQNASFVRMDNISLGYTFNKLFNDKQSARVYATVQNPFVITKYKGLDPEISGEGIDNNIYPRPRVFMIGLNLNF” as the sequence, how does the “soluble on expression in E. coli” value read?
A: not soluble

Q: For “MPAALLISGPCKICDLPAHGNHFGVLSCRACAAFFRRASRSPRFQDKACEYGDCRIFDAGAYRCKICRLKKCYKVGMDASKFQKDRDLISSSNAYLKRTKVYAPQSLANFLGRPEFIISFEPEKASPFKTVIDVTDLVHKAAEIFQEDLANSPMPYKYSNSLEKLTLEMEDLRLRSSNHKVKIVRNIGKAESLVFFEQMFLATANWYARLPDFTSLDLRVKLEILKSTWMLWIRLNKLAETAQNQRIKEMGANIFMCSENTCLNVQDINVDWSWCTNYGAEQMQAFLMPNIDKHWRQPVEDLVKLNPTDMELNFMLIQLCLNDAGKKFQGRVLEATDKLLQINADNLHNYYTKKLNMPSYSGRLTKLMKINQIVEEDVRERKEKAKIVEVFDLFSIVYSHPEMFEGT”, which “soluble on expression in E. coli” value is on record?
A: not soluble

Q: For “MIIKPAGDSAFLISFGDEISEEINDRVHSLAKAIEKESPEWLVELVPAYSSLLVIYDPLKASYEEVESYLKRISAREVERIKGKTIEIPVAYGGEFGPDIEFVAQYNGLSVDDVIEIHSKPLYRVYFLGFLPGFAYLGGMDERIATPRLEKPRLKVPAGSVGIAGKQTGWYAIESPGGWRIIGRIPLRTFNPGKVPPSIVLPGDYVKFVPIDEKEFWEIYGREWE”, which “soluble on expression in E. coli” value is on record?
A: soluble
